# Experimental data: US7611721B1, “Adjuvant combination formulations” (priority 2000, dated 2009)
# Like-named read-outs stand apart in the source and are kept apart here.
# Columns and labels:
# T1SP10MN(A) (−Cys) [1] = conditions: Experiment 3, 14 days after second immunization
# Description: The protocols of Experiment 2 were followed, with Swiss-Webster mice used instead of Balb/c mice. Only reciprocal anti-peptide IgG endpoint titers and vaginal lavage endpoint reciprocal endpoint IgG and IgA antibody titers were measured in this experiment.
# Reciprocal anti-T1SP10MN(A) (−Cys) IgG endpoint titers were measured from geometric means from individual Swiss-Webster mice (GMT), obtained 14 days after the second immunization. IgG1 and IgG2a subclass endpoint titers were also measured from pooled serum. For recipients of Freund's adjuvants, mice were primed with peptide emulsified in CFA, and boosted with IFA. […] Aqueous MPL™ was delivered at 50 μg per dose. Recombinant murine IL-12 was delivered at 40 ng/mouse. Recombinant murine GM-CSF was delivered at 10 μg/mouse.
# T1SP10MN(A) (−Cys) [2] = tested on: T1SP10MN(A) (−Cys)
# Description: Mice were immunized subcutaneously in the rump, in a total volume of 0.2 ml equally divided on each side of the tail. Immunizations were administered at varying time intervals, as indicated below. Antigen and cytokines were diluted in phosphate buffered saline to the appropriate concentrations and formulated with adjuvants less than 16 hours prior to immunization, under sterile conditions. Vaccines were mixed by gentle agitation, and stored at 4° C. Formulations were mixed by vortex immediately prior to immunization.
# Animals were bled prior to initial immunization, and at indicated time points. Serum was analyzed from individual mice, or as pools from mice within groups.
# For analysis of HIV peptide-specific antibody and subclass distribution, peptide was suspended in either carbonate buffer (15 mM Na2CO3, 35 mM NaHCO3, pH 9.6), or PBS, at a concentration of 1 μg/ml and plated to 96 well microtiter plates (Nunc) in a volume of 100:1. After overnight incubation at 37° C., plates were washed, and blocked (0.1% gelatin/PBS) at room temperature for 2-4 hours. ELISA plates were washed with wash buffer (PBS, 0.1% Tween™20) before addition of serially diluted serum (PBS, 0.1% gelatin, 0.05% Tween™20, 0.02% sodium azide). After a four hour incubation, wells were washed and appropriate dilutions of biotinylated anti-isotype/subclass antibodies were added for incubation at 4° C. overnight. Wells were washed and incubated with strepavidin-conjugated horseradish peroxidase. After incubation, wells were washed, and developed with ABTS. Wells were read at 405 nm. Titers were standardized using control sera.
# Reciprocal anti-HIV peptide-specific IgG endpoint titers were measured from pooled serum (n=5 Balb/c) at the indicated time points after initial immunization. Mice were immunized subcutaneously in the rump with 25 μg of T1SP10MN(A) (−Cys), unless otherwise indicated, on day 0, and on day 27. For recipients of Freund's adjuvants, mice were primed with peptide emulsified in CFA, and boosted with IFA. MPL™ SE was provided as an emulsion containing 2% squalene oil and 50 μg MPL™ per dose. SE is an oil-in-water emulsion vehicle consisting of squalene, glycerol, and an emulsifying agent. Recombinant murine IL-12 was delivered at 50 ng/mouse. Recombinant murine GM-CSF was delivered at 10 μg/mouse.
# Reciprocal endpoint IgG subclass titers were measured from pooled serum (n=5 Balb/c) six weeks after initial immunization, two weeks after secondary immunization. Mice were immunized subcutaneously in the rump with 25 μg of peptide, unless otherwise indicated. For recipients of Freund's adjuvants, mice were primed with peptide emulsified in complete Freund's adjuvant, and boosted with incomplete Freund's adjuvant on weeks four and six. MPL™ SE was provided as an emulsion containing 2% squalene oil and 50 μg MPL™ per dose. SE is an oil-in-water emulsion vehicle consisting of squalene, glycerol, and an emulsifying agent. Recombinant murine IL-12 was delivered at 50 ng/mouse. Recombinant murine GM-CSF was delivered at 10 μg/mouse.
# Mice were immunized subcutaneously in the rump, in a total volume of 0.2 ml equally divided on each side of the tail. Immunizations were administered on days 0 and 21 with 25 μg of the HIV peptide, together with the indicated amount of adjuvant(s).
# Reciprocal anti-peptide IgG endpoint titers were measured from either geometric means from individual mice (GMT) or from pooled serum (n=5 Balb/c), obtained 14 days after the second immunization. IgG1 and IgG2a subclass endpoint titers were also measured from pooled serum.
# spleen cells = experiment: Secretion of interferon-gamma by spleen cells (ELISA); format: cell-based, Balb/c mice; conditions: for Secretion of Interferon-gamma, Con A 1 μg/ml: Experiment 1
# Description: For proliferation assays and in vitro cytokine analysis, spleen cells were obtained from mice at the indicated time points. Single cell suspensions were prepared from pools of 3-5 mice as indicated in Results. For proliferation and cytokine analysis, cells were suspended in round bottom 96 well culture plates precoated overnight with HIV peptide antigens, control proteins, or RPMI-10 only. Spleen cells were added at 5×10^5 cells/well using culture medium having 2× supplements. Cell culture supernatants were harvested from triplicate wells for cytokine analysis three or six days after culture initiation. Immediately after supernatant harvest, cultures were pulsed with ^3H-thymidine for 18-24 hours, and harvested to quantify cell proliferation.
# For cytokine analysis, cell culture supernatants were added to wells coated with BVD6-11B11 (for anti-IL4), or R4-6A2 (for interferon-gamma). After incubation and washing, wells were developed using biotin-labeled BVD6-24G2 (for IL4) or XMG 1.2 (for interferon-gamma). The concentration of cytokines was determined using a standard curve prepared from recombinant murine interferon-gamma or interleukin-4. All cytokine reagents were purchased from Pharmingen (San Diego, Calif.).
# Interferon-gamma secreted into culture by spleen cells stimulated with 25 μg T1SP10MN(A) (−Cys). Spleen cells were harvested from pools of five Balb/c female mice and cultured with the indicated antigenic stimuli (the same as in Example 6) for either three or six days. Interferon-gamma levels were determined by ELISA, and compared to a standard having a known concentration. Blank wells indicate that the assay could not detect Interferon-gamma from those culture conditions. The lower limit of detection sensitivity was 4 picograms/ml.
# Cells were cultured for a total of 96 hours. Cell culture supernatants were analyzed for interferon-gamma by ELISA. All values were after subtraction from those determined from supernatants of cells stimulated with 10 μg of lysozyme. Results which were below the limit of detection, after subtraction from stimulation induced with lysozyme are indicated as “bd”. The adjuvants were the same as those in Example 12.
# [3] = Experiment 1, pooled serum n=5 Balb/c, 25 μg peptide s.c. day 0 and 27
# [4] = Experiment 1, pooled serum n=5 Balb/c, six weeks after initial, two weeks after secondary immunization, 25 μg peptide
# [5] = Experiment 2, pooled serum n=5 Balb/c, 14 days after second immunization
# [6] = Experiment 4, individual Balb/c mouse, day 41, 13 days after secondary immunization (days 0 and 28)
# [7] = Experiment 4, pooled serum n=5 Balb/c, day 41, 13 days after secondary immunization
# [8] = Experiment 5, pooled serum n=5 Balb/c, immunized days 0 and 22, bled day 42
# [9] = Experiment 2, 96 hours culture, after subtraction of lysozyme value, bd = below limit of detection
molecule,measurement,setting,value
"GM-CSF: Recombinant murine granulocyte macrophage colony stimulating factor (protein, UniProt P01587 18-141, looked up) Granulocyte-macrophage …: APTRSPITVTRPWKHVEAIKEALNLLDDMPVTLNEEVEVVSNEFSFKKLTCVQTRLKIFEQGLRGNFTKLKGALNMTASYYQTYCPPTPETDCETQVTTYADFIDSLKTFLTDIPFECKKPGQK",Reciprocal anti-HIV peptide IgG (GMT) endpoint titer,T1SP10MN(A) (−Cys) [1]; individual Swiss-Webster mice,500
same,Reciprocal anti-HIV peptide IgG1 (pool) endpoint titer,T1SP10MN(A) (−Cys) [1]; pooled serum Swiss-Webster,<1000
same,Reciprocal anti-HIV peptide IgG2a (pool) endpoint titer,T1SP10MN(A) (−Cys) [1]; pooled serum Swiss-Webster,<1000
same,"Reciprocal anti-T1SP10MN(A) (-Cys) IgG endpoint titer, WEEK 4",T1SP10MN(A) (−Cys) [2]; [3],<100
same,"Reciprocal anti-T1SP10MN(A) (-Cys) IgG endpoint titer, WEEK 6",T1SP10MN(A) (−Cys) [2]; [3],"17,579"
same,"Reciprocal anti-T1SP10MN(A) (-Cys) IgG endpoint titer, WEEK 8",T1SP10MN(A) (−Cys) [2]; [3],"12,537"
same,Reciprocal anti-T1SP10MN(A) (-Cys) IgG1 endpoint titer,T1SP10MN(A) (−Cys) [2]; [4],"1,783"
same,Reciprocal anti-T1SP10MN(A) (-Cys) IgG2a endpoint titer,T1SP10MN(A) (−Cys) [2]; [4],<100
same,Reciprocal anti-T1SP10MN(A) (-Cys) IgG2b endpoint titer,T1SP10MN(A) (−Cys) [2]; [4],<100
same,Reciprocal anti-T1SP10MN(A) (−Cys) IgG (GMT) endpoint titer,"T1SP10MN(A) (−Cys) [2]; Experiment 2, geometric mean of individual Balb/c mice, 14 days after second immunization","1,756"
same,Reciprocal anti-T1SP10MN(A) (−Cys) IgG1 (pool) endpoint titer,T1SP10MN(A) (−Cys) [2]; [5],"14,538"
same,Reciprocal anti-T1SP10MN(A) (−Cys) IgG2a (pool) endpoint titer,T1SP10MN(A) (−Cys) [2]; [5],"4,864"
same,Reciprocal anti-T1SP10MN(A) (−Cys) IgG (pool) endpoint titer,"T1SP10MN(A) (−Cys) [2]; Experiment 2, pooled serum n=5 Balb/c, immunized days 0 and 21, 14 days after second immunization","27,333"
same,"IgG serum titer specific for T1SP10MN(A) (−Cys), Mouse #1",T1SP10MN(A) (−Cys) [2]; [6],50
same,"IgG serum titer specific for T1SP10MN(A) (−Cys), Mouse #2",T1SP10MN(A) (−Cys) [2]; [6],50
same,"IgG serum titer specific for T1SP10MN(A) (−Cys), Mouse #3",T1SP10MN(A) (−Cys) [2]; [6],50
same,"IgG serum titer specific for T1SP10MN(A) (−Cys), Mouse #4",T1SP10MN(A) (−Cys) [2]; [6],50
same,"IgG serum titer specific for T1SP10MN(A) (−Cys), Mouse #5",T1SP10MN(A) (−Cys) [2]; [6],50
same,"Geometric Mean IgG serum titer specific for T1SP10MN(A) (−Cys), GMT","T1SP10MN(A) (−Cys) [2]; Experiment 4, n=5 Balb/c, day 41, 13 days after secondary immunization",50
same,Reciprocal anti-T1SP10MN(A) (−Cys) IgG1 endpoint titer,T1SP10MN(A) (−Cys) [2]; [7],"5,514"
same,Reciprocal anti-T1SP10MN(A) (−Cys) IgG2a endpoint titer,T1SP10MN(A) (−Cys) [2]; [7],<100
same,Reciprocal anti-T1SP10MN(A) (−Cys) IgG2b endpoint titer,T1SP10MN(A) (−Cys) [2]; [7],<100
same,Reciprocal anti-T1SP10MN(A) (−Cys) IgG GMT,"T1SP10MN(A) (−Cys) [2]; Experiment 5, geometric mean n=5 Balb/c, immunized days 0 and 22, bled day 42","5,133"
same,Reciprocal anti-T1SP10MN(A) (−Cys) IgG1 endpoint titer,T1SP10MN(A) (−Cys) [2]; [8],"3,815"
same,Reciprocal anti-T1SP10MN(A) (−Cys) IgG2a endpoint titer,T1SP10MN(A) (−Cys) [2]; [8],<1000
same,Reciprocal anti-T1SP10MN(A) (−Cys) IgG2b endpoint titer,T1SP10MN(A) (−Cys) [2]; [8],<1000
same,Reciprocal anti-T1SP10MN(A) (−Cys) IgG endpoint titer,T1SP10MN(A) (−Cys) [2]; [8],"11,639"
same,"Secretion of Interferon-gamma, Con A 1 μg/ml",spleen cells; Six Day Cultures,7.3 picograms/ml
same,"Secretion of Interferon-gamma, Con A 1 μg/ml","spleen cells; Three Day Cultures, detection limit 4 picograms/ml",17.6 picograms/ml
same,"Secretion of Interferon-gamma, Con A 5 μg/ml","spleen cells; Experiment 2, 96 hours culture, after subtraction of lysozyme value",167 units/ml
same,"Secretion of Interferon-gamma, HIV Peptide 1.1 μg/ml",spleen cells; [9],4 units/ml
same,"Secretion of Interferon-gamma, HIV Peptide 3.3 μg/ml",spleen cells; [9],3 units/ml
same,"Secretion of Interferon-gamma, HIV Peptide 10 μg/ml",spleen cells; [9],2 units/ml
